How the values were obtained:
HIV-1 integrase [1] = target: T1, HIV-1 integrase (Human immunodeficiency virus 1 (BH10), UniProt P03366 P03366:1160-1447); assay: FP filter; binding completely abolished; conditions: tags: gift of Agouron Pharmaceuticals; BH10 clone
HIV-1 integrase [2] = target: T1, HIV-1 integrase; assay: FP filter; deletion had no noticeable effect on binding; conditions: tags: gift of Agouron Pharmaceuticals; BH10 clone
HIV-1 integrase [3] = target: T1, HIV-1 integrase; assay: FP filter; nitrocellulose filter; 50 mM NaCl; conditions: tags: gift of Agouron Pharmaceuticals; BH10 clone; stem-loops with GNRA tetraloop and putative pseudoknot (11-14 with 28-31)
Procedure: (§1) Binding assays were done by adding 5 µl of HIV-1 integrase protein, at the appropriate concentrations (i.e., ranging from 2 ×10^-6 with 3 fold dilutions to 9 ×10^-9 for 250 mM NaCl and 0.5 ×10^-7 with 3 fold dilutions to 2 ×10^-10 for 50 mM NaCl), to 45 µl of binding buffer (50 mM Na-HEPES pH 7.5, 250 mM NaCl, 2 mM DTT, 10 mM MnCl_2, 5 mM CHAPS) on ice, then adding 50,000 cpm of kinased RNA (<200 fmoles) in a volume of 3 to 4 µl. This mix is incubated at 37° C. for 20 minutes. The reactions were then passed over nitrocellulose filters, which were pre-equilibrated in buffer, and washed with a 50 mM Tris-Cl pH 7.5 solution. Filters were dried and counted in cocktail. The proteins used in these experiments were frozen and thawed only once. Each binding curve consisted of seven points and each point is an average since experiments were done in triplicate.

HIV-1 integrase [4] = target: T1, HIV-1 integrase; assay: FP filter; nitrocellulose filter; 250 mM NaCl, 10 mM MnCl2, pH 7.5, 37 C; conditions: tags: gift of Agouron Pharmaceuticals; BH10 clone; stem-loops with GNRA tetraloop and putative pseudoknot (11-14 with 28-31)
Procedure: as §1

HIV-1 integrase [5] = target: T1, HIV-1 integrase; assay: competition; inhibits binding of con+/- U5 DNA, 180 mM NaCl; conditions: tags: gift of Agouron Pharmaceuticals; BH10 clone; stem-loops with GNRA tetraloop and putative pseudoknot (11-14 with 28-31)
Procedure: 50 nM integrase was mixed with 20 nM double-stranded con± which mimics the U5 region of the HIV genome and incubated at 37° C. for 5 minutes. After this time, varying amounts of P5 or 30N RNA (i.e., random pool RNA) was added and the reaction mix (30 µl final volume) was incubated further for 20 minutes. The reactions were then placed at room temperature and passed over nitrocellulose filters. Filters were washed three times with 1 ml of 50 mM Tris-Cl pH 7.5. Filters were dried under a heat lamp and counted in a cocktail for 1 minute each. In the absence of RNA under these conditions, approximately 10% of the double-stranded DNA was retained on filter.

HIV-1 integrase [6] = target: T1, HIV-1 integrase; assay: FP filter; nitrocellulose filter; 250 mM NaCl; conditions: tags: gift of Agouron Pharmaceuticals; BH10 clone
Procedure: as §1

B1: P5 deletion of 1-14 (ssRNA)
RNA: AACGCUCAACCAGUCUUGUGGCUUUGAAAGAGAGGAGUGUUCGACAUGAGGCCCGGAUCCGGC
binding result (HIV-1 integrase [1]): no binding

B2: P5 deletion of 56-77 (ssRNA)
RNA: GGGAGCUCAGAAUAAACGCUCAACCAGUCUUGUGGCUUUGAAAGAGAGGAGUGUU
binding result (HIV-1 integrase [1]): no binding

B3: P5 truncate lacking 1-6 and 64-77 (ssRNA)
RNA: UCAGAAUAAACGCUCAACCAGUCUUGUGGCUUUGAAAGAGAGGAGUGUUCGACAUGA
binding result (HIV-1 integrase [2]): binds

B4: P5 (ssRNA)
RNA: GGGAGCUCAGAAUAAACGCUCAACCAGUCUUGUGGCUUUGAAAGAGAGGAGUGUUCGACAUGAGGCCCGGAUCCGGC
Kd (HIV-1 integrase [3]): 2 nM | Kd (HIV-1 integrase [4]): 12 nM | IC50 (HIV-1 integrase [5]): 6 nM

B5: P23 (ssRNA)
RNA: GGGAGCUCAGAAUAAACGCUCAACCAGUCUUAUGGCGUUGCAAGAUAGGGGCGUUCGACAUGAGGCCCGGAUCCGGC
Kd (HIV-1 integrase [6]): 25 nM

Source: patent publication US5587468, “High affinity nucleic acid ligands to HIV integrase” (University Research Corporation)
